Results as given in the nanobody polyreactivity screen of Harvey et al. (2022).

Experiment: yeast display, Sf9 membrane polyspecificity reagent, FACS + sequencing; frameworks hold sequencing errors
In short: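 Nanobodies from a synthetic yeast display library (Saccharomyces cerevisiae BJ5465), induced 36–48 hours with galactose, were stained 1 hour at 4 °C with 10% biotinylated, detergent-solubilized Sf9 membrane reagent, enriched on streptavidin microbeads, then FACS-sorted. Anti-HA (expression) and streptavidin (reagent binding) fluorescence set low and high (top ~1%) gates. Polyreactivity labels come from the gate of origin. Genes were colony-PCR amplified, MiSeq 2 × 250 sequenced and filtered by CDR length.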
In the case of “QVQLVESGGGLVQAGGSLRLSCAASGIIIDYNAMGWYRQAPGKERELVAAISSRGGSTYYADSVKGRFTISRDNAKNPVYFQMNSLKPEDTAVYYCAGRPDHQRYDYWGQGSQVTVSS”, the “polyreactivity (PSR sort gate)” value is reported as “low polyreactivity”.
For “QVQLVESWGGLVQAGGSLRLSCAASGNIFYFYAMGWYRQAPGKERELVAAITSVGSTKYADSVKGRFTISRDNAKNTVYLEMNCLKPEDTAVYYCAARRWRSYYYWGQGTHVTVSS”, the “polyreactivity (PSR sort gate)” value was “high polyreactivity”.
With “QVQLVESGGGLVEAGGSLRLSCAASGLTIRWYAMGWYRQAPGKESEVVATISSGGSTNYADSVKGRFTISRDNAKNTVYFQMNSLTPEDTAVYYCNAYFRGYYHATIGMDYWGQGTQVTVSS” the “polyreactivity (PSR sort gate)” value was “high polyreactivity”.
For “QVQLVESGGGLVQAGGSLRLSCAASGGTINGNTMGWYRQAPGKERELVAVIDWSGGSTYYADSVKGRFTISRDNAKNTVYLQMNSLKPEDTAVNYCNADSDAQFREPKGMYYWGQGTQVTLSS”, the “polyreactivity (PSR sort gate)” value was “low polyreactivity”.
For “QVQLVESGGGLVQAGGSLRLSCAASGSTFTNYALGWYRQAPGKEREFVAAITFRGGRTYYADSVKGRFTISRDNAKNTVYLQMNSLKPEDTAVYYCNKRTSPKRFDYWGQGTQVTVSS”, the “polyreactivity (PSR sort gate)” value was “high polyreactivity”.
In the case of “QVQLVESGGGLVQAGGSLRLSCAASGRTLGVYAMGWYRQAPGKERELVATITSGDGTNYADSVKGRFTISRDNAKNTVYLQMNSLKPVDTAVYYCNAEAKSQWFVYPYWYWPLYDYWGPGTQVTVSS”, the “polyreactivity (PSR sort gate)” value is reported as “low polyreactivity”.
In the case of “QVQLVESGGGLVQAGGSLLLSCAASGYTFGFYAMGWYTQAPGKERELVAAISASGGSTYYADSVKGRFTISRDNAKNTVYLQMNSVKPEETAVYYCAAVYSVYYHTWVTTRDYYYWGQGTQVTVSS”, the “polyreactivity (PSR sort gate)” value is reported as “high polyreactivity”.
With “QVQLVESGGGLVQAGGSLRLSCAASGFIFYSYAMGWYRQAPGKERELVAAITSSGGNTYYADSVKGRFTISRDNAKNTVYLQMNSLKPEDSAVYYCAASSRFWTFYYGIILYDYWGQGTQVTVSS” the “polyreactivity (PSR sort gate)” value was “high polyreactivity”.
For “QVQLVESGGGLVQAGGSLRLSCAASGFTFGRYARGWYRQAPGKERELVAAISRGGSSTYYADSVKGRFTISRDNAKNTVYLQMNSLKPEDTAVYYCNKVIIWARFDYWGQGTQVTVSS”, the “polyreactivity (PSR sort gate)” value was “high polyreactivity”.
For “QVQLVESGGGLVQAGGSLRLSCAASGSIFSDYALGWYRQAPGKERELVAAITQSGGSTYADSVKGRFTISRDNAKNTVYLQMNSLIPEDTAVYYCAADEVPGFGYPPYPWFDYWGQGTQVTVSS”, the “polyreactivity (PSR sort gate)” value was “low polyreactivity”.
For “QVQLVESGGGLVQAGGSLRLSCAASGRIFGRNAMGWYRQAPGKERELVAAISSGGSTYYADSVKGRFTISRDNAKNTVYLQMNSLKPEDTAVYFCAVRGSYYNGGRAFESWGQGTQVTVSS”, the “polyreactivity (PSR sort gate)” value was “high polyreactivity”.
With “QVQLVESGGGLVQAGGSLRLSCAASGFTFRWYAMGWYRQAPGKERELVASISRRGGSTYYADSVKGRFTISRDNAKNTVYLQMNSLKPEDTAVYYCAADYYDYWGQGTQVTVSS” the “polyreactivity (PSR sort gate)” value was “high polyreactivity”.
For “QVQLVESGGGLVQAGGSLRLSCAASGRTIEYNAMGWYRQAPGKEREFVAAITYSGGGTYYADSVKGRFTISRDNAKNTVYLQMNSLKPEDTAVYYCARERTRVHKHYYWGQGTQVTVSS”, the “polyreactivity (PSR sort gate)” value was “low polyreactivity”.
With “QFQLVESGGGLVQAGGSLRLSCAASGRTFRGYAMGWYRQATGTERELVAAITWRGGSTYYADSVKGRFTISRDNEKNTVYLQMNSLKPEDTAVYYCNTLVWSYLGGYYSRYDYWGQGTQVTVSS” the “polyreactivity (PSR sort gate)” value was “high polyreactivity”.
For “QVQLVESGGGLVQAGGSLRLSCAASGSIFRYYAMGWYRQAPGKERELVATISRDGGNTYYADSVKGRFTISRDNAKNTVYVQMNSLKPEDTAVYYCAKLGYRLSGYGYDYWGQGTQVTVSS”, the “polyreactivity (PSR sort gate)” value was “high polyreactivity”.
In the case of “QVQLVDSGGGLVQAGGSLRLSCAASGFTFRYYAMGWYRQAPGKERELVAAISSSGTRTYYADSVKGRFTISRDNAKTTVYLQMNSLKPEDTAVYYCNAVSPTSTVDYWGQGTQVTVSS”, the “polyreactivity (PSR sort gate)” value is reported as “high polyreactivity”.
With “QVQLVESGGGLVQAGGSLRLSCAASGFTFLHNAMGWYRQAPGKDRELVAAISYSGGSTYADSVKGRFTISRDNAKYTVYLQMNSLKPEDTADYYCNADYSSQDNFDYWGQGTQVTVSS” the “polyreactivity (PSR sort gate)” value was “low polyreactivity”.
In the case of “QVQLVESGGGLVQAGGSLRLRCAASGNIFYGNAMGWYRQAPGKERELVAGITSGGSTNYADSVKGRFTISRDNAKNTVYLQMNSLKPEDTAVYYCNATSSGSIFGYDYWGQGTQVTVSS”, the “polyreactivity (PSR sort gate)” value is reported as “low polyreactivity”.
With “QVQLEESGGGLVQAGGSLRLSCAASGSTFVYYARGWYRQAPGKERELVAAITTRGGSTYYADSVKGRFTISRDNAKNTVYLQMNSLKPEDTAVYYCATKWPVYPTGYDYWGQVTQVTVSS” the “polyreactivity (PSR sort gate)” value was “low polyreactivity”.
With “QVQLVESGGGLVQEGGSLRLRCAASGRIFYNYAMGCYRQAPGKERELVAAITGRGGRTYYADSVKGRFTISRDNAKNTVYLQINSLKPEDTAVYYCSVRAGTAGYPKYDYWGPGTQVTVSS” the “polyreactivity (PSR sort gate)” value was “high polyreactivity”.
For “QVQLVESGGGLVQAGGSLRLSCAASGRTFLPYAMGWYRQAPGKEWELVAAIDSSGGSTYYADSVKGRFTISRDNAKNTVYLQMNSLKPEDTAVYYCAADLYSSYYLYDSWGQGTQVTVSS”, the “polyreactivity (PSR sort gate)” value was “low polyreactivity”.
In the case of “QVQLVESGGGLVQAGGSLRLSCAASGRTFQWYAMGWYRQAPGKERELVAAISYSDASTYYADSVKGRFTISRDNAKNTVYLQMNSLKPEDTAVYYCAAVYYVVYGPWGGSYYWGQGTQVTVSS”, the “polyreactivity (PSR sort gate)” value is reported as “low polyreactivity”.
With “QVQLVESGGGLVQAGGSLRFSCAASGFIFRYYAMGWYRQAPGKERELVAAIDYSGGSTIYADSVKGRFTISRDNAKNTVYLQMNSLKPEDTAVYYCNAEYTWHRGYDYWGQGTQVTVSS” the “polyreactivity (PSR sort gate)” value was “low polyreactivity”.
In the case of “QVQLVESGGGLVQAGGSLRLSCAASGSIFAYYAMGGYRQAPGKEREFVAAISKRGGRTYYADSVKGRFTISRDNAKNTVYLQMNSLKPEDTAVYYCAAPWAYPRSGGDYWGQGTQVTVSS”, the “polyreactivity (PSR sort gate)” value is reported as “high polyreactivity”.
With “QVQLVESGGGLVQAGGSLRLSCAASGSTLRGNAMGWYRPAPGKERELVAAITGRGTRTYYADSVKGRFTISRDNAKNTVYLQMNSLKPEDTAVYYCAAKGRLYPGWEYYYWGQGTQVTVSS” the “polyreactivity (PSR sort gate)” value was “high polyreactivity”.
With “QVQLVESGGGLVQAGGSLRLSCAASGSTFYTYAMGWYRQAPGKERELVAAISWSGGSTYYADSVKGRFTISRDIAKNTVYLQMNSLKPEDTAVYYCAKKQVTTDVSSETFVLEMDYWGQGTQVTVSS” the “polyreactivity (PSR sort gate)” value was “low polyreactivity”.
For “QVQLVESGGCLVQAGGSHRLSCAASGRTFGYNAMGWYSQAPRKERELVAVIRSGGSTYYADSVKGRYTISRDNAKNTVYFQMNSLKPEDTAVYYCAATGLYNVTSPYSYKYDYWGQGTQVTVSS”, the “polyreactivity (PSR sort gate)” value was “low polyreactivity”.
With “QVQLVESGGGLVQAGGSLRLSCAASGSIIYLYAMGWYRQAPGKERELVAAISKSGSRTYYADSVKGRFTISRDNAKNTVYLQMNSLKPEDTAVYYCATPYRVYGEGYYWGQGTQVTVSS” the “polyreactivity (PSR sort gate)” value was “high polyreactivity”.
In the case of “QVQLVESGGGLVQAGGSLRLSCAASGIIFWRYAMGWYRQAPGKERELDAGITSRGGSTYYADSVKGRFTISRDNAKNTVYLQMNSLKPEDTAVYYCNAPRGSRRSYRRTEYYYWGQGTQVTVSS”, the “polyreactivity (PSR sort gate)” value is reported as “high polyreactivity”.
With “QVQLQESGGGLVQAGGSLLSCAASGTISWDDEMGWYLQAPGNERELVAGIAGGGNTNYADSVKGRFTISRDNAKNTVYLQMNSLDTAVYYCAVVGFGRGTHIYWGQGTQVTVSS” the “polyreactivity (PSR sort gate)” value was “high polyreactivity”.
With “QVQLVESGGGLVQAGGSLRLICAASGSTFARYAMGWYRQAPGKERELVAVIRSGGSTNYADSVKGRFTISRDNAKNTVYLQMNSMKTEDTAGAADQWTIHRWATYGYWGQGTQVTVSS” the “polyreactivity (PSR sort gate)” value was “low polyreactivity”.
In the case of “QVQLVESGGGLVQAGGSLRLSCAASGMGWYRQAPGKERELVATITTGGTYADSVKGRFTISRDNAKNTVYLQMNSLKPEDTAVYYCAADGLGSVYYLRYNYWGQGTQVTVSS”, the “polyreactivity (PSR sort gate)” value is reported as “low polyreactivity”.
For “QVQLVESGGGLVQAGGSLRLSCAASGRTYSIYAMGLYRQEPGNEREMVAAISNGGRTKYADSVKGRFTISRDNAKNTVYLQMNSLKPEDTAVYYCAASSYTNKRYPSPYDYWGQGTQVTVSS”, the “polyreactivity (PSR sort gate)” value was “high polyreactivity”.
For “QVQLVESGGGLEQAGGRLRLSCAASGFTFDFYAMGWYRQAPGKERQLVAAISKNDGTTYYADSVKGRFTISRDNAKNTVYLQMNSLKPEDTAVYYCAAESGYPVYTYVSSGDYWGQGTQVTVSS”, the “polyreactivity (PSR sort gate)” value was “low polyreactivity”.
With “QVQLVESGGGLLQAGGSLRLSCAASGSTFSSYAMGWYRPAPGKERELVAAITSSGGSTYYADSVKGRFTISRDNAKNTVYLKLNSLKPEDTAVYYCAAADVIFWLYYYWGQGTQVTVSS” the “polyreactivity (PSR sort gate)” value was “low polyreactivity”.
For “QFQLVESGGGLVQAGGSLRLSCAASGFIFSNYAMGWYRQAPGKERELVASISWGGGSTYYADSVKGRFTISRDNAKNTVYLQMNSLKPEDTAVYYCATVRSLYSYDYWGQGTQVTVSS”, the “polyreactivity (PSR sort gate)” value was “high polyreactivity”.
With “QVQLVESGGGLVQAGGSLRLSLAASGSIFARYAMGWYRQAPGKERELVAAITYTGGRTYYADSVKGRFTISSDYAKNTVYLKMNSLKPEDTAVFYCAKDGQATVRRGYDYWGQGTQVTVSS” the “polyreactivity (PSR sort gate)” value was “high polyreactivity”.
In the case of “QVQLVESGGGLVQAGGSLRLSCAASGRIFRLYAMGWYRQAPGKERELVATITDVGSTYYADSVKGRFTISRDNAKNTVYLQMNSLKPEDTAVYYCAAESYYTSYWKYYYWGQGTQVTVSS”, the “polyreactivity (PSR sort gate)” value is reported as “high polyreactivity”.
With “QVQLVESGGGLDQAGGSLRLSCAASGRIFGRNAMGWYRQAPGKERELVAAITWSGGSTNYADSVKGRFTISRDNAKNTVYLEMNSLKPEDTAFYYCAKRYTPRPYKGICYYYWGQGTQVTVSS” the “polyreactivity (PSR sort gate)” value was “high polyreactivity”.
With “QVQLVESGGGLVQAGGSLRLSCAASGSIFGSNAMGWYRQAPGKERELVAAITESGGDTYYADSVKGRFTISRDNAKNTVYLQMNSLKPEDTAVYYCAARYFGVIVDVSLFREYGSWGQGTQVTVSS” the “polyreactivity (PSR sort gate)” value was “low polyreactivity”.
In the case of “QVQLVESGGGLVQAGGSLRLSCAASGFTFSLYAMGWYRQAPGKEWEVVAAISSRGGTTYYADSVKGRFTISRDNAKNTVYLQMNILKAEDTAVYYCAARYVYTRSAFDYWGQGTQVTVSS”, the “polyreactivity (PSR sort gate)” value is reported as “high polyreactivity”.
